Reference: the supplement of paper PMC10126150
± gives the standard deviation of the averaged measurements.

What follows are sequences tested on ATP (assay: switch fluorescence ratio, 500 uM ATP over buffer (Cy3 cluster intensity, sum of 5 cycles each) (fold (ratio)); higher = stronger signal-on switching upon ATP binding; sequences stand for … in TCGTCGGCAGCGTCAGATGTGTATAAGAGACAGTTTTTTTTTTTTTTTTTTTTTTTTT…TC). Conditions: aptamer strand: ATP DNA aptamer (quencher-CACCTGGGGGAGTATTGCGGAGGAAGG + anchor), 100 nM annealed; ATP concentration: 500 uM.
Outline: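 For every switch-domain sequence, the fluorescence ratio is the mean of per-cluster values, each being summed target-cycle Cy3 intensity over summed buffer-cycle Cy3 intensity. Clusters outside 100-1000 RFU were excluded. On a modified Illumina MiSeq flow-cell, the Cy3-labelled switching-strand clusters were annealed to 100 nM quencher-labelled ATP aptamer, imaged in selection buffer and then after 15 min with 500 uM ATP at 22 °C. Five such cycles were run, with NaOH stripping and re-annealing between them.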
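Further: ATP exposure 15 min at 22 °C before imaging.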

| Sequence | switch fluorescence ratio |
| --- | --- |
| CTGTCGGGTT | 1.03 ± 0.04 |
| AGGGAAAAGA | 1.03 ± 0.031 |
| TGCGCATAGA | 1.02 ± 0.018 |
| TATTTATAAA | 0.998 ± 0.025 |
| AGCTGGGGTC | 0.9851 ± 0.0063 |
| CTGTATTTGG | 1 ± 0.012 |
| TGACTCGGTG | 0.984 ± 0.015 |
| GTTACTGGAA | 1.04 ± 0.02 |
| AACGGGAAGA | 1.02 ± 0.028 |
| GAAATTGGGT | 0.981 ± 0.018 |
| TATCAGCATG | 1.01 ± 0.033 |
| GTTTTAAAAG | 0.979 ± 0.01 |
| GGAAGATGTT | 0.985 ± 0.014 |
| TATGAAATGT | 1.01 ± 0.033 |
| GGGCGGCCTT | 1.03 ± 0.068 |
| ATTGCAATGT | 1.036 ± 0.0055 |
| GGCCCGGGGC | 0.995 ± 0.017 |
| TTCACTTTGA | 1.012 ± 0.0067 |
| AGTCACGGGT | 1.03 ± 0.016 |
| ATTCAGACCT | 1.39 ± 0.019 |
| TGAGTAGCGT | 0.9631 ± 0.0063 |
| CCTTTAGGGG | 0.997 ± 0.037 |
| ATGGGGGTCG | 0.98 ± 0.05 |

| Sequence | switch fluorescence ratio |
| --- | --- |
| ATGGCGGACG | 0.981 ± 0.05 |
| ATATGAAAGT | 0.977 ± 0.024 |
| AGTTGTGCGT | 0.981 ± 0.012 |
| CTAGAGTGAG | 1.02 ± 0.049 |
| TGGGACGTGG | 0.9812 ± 0.0086 |
| TGAGATGAAG | 1.005 ± 0.0085 |
| AGAAGAAGGG | 1.03 ± 0.017 |
| AGGTAGTGGG | 0.974 ± 0.029 |
| TGTGACTAAG | 0.9791 ± 0.0015 |
| TGGTCGTCCG | 0.971 ± 0.057 |
| TGGGTTTCT | 1 ± 0.041 |
| GCGGGTTATG | 1.02 ± 0.029 |
| TAACAATCGC | 1.06 ± 0.038 |
| TGATAGAAGT | 1.01 ± 0.015 |
| CGTGAGAAAG | 1 ± 0.018 |
| GAGAGATTGT | 1.005 ± 0.0086 |
| GGAAACTCTC | 1 ± 0.015 |
| AATTGTTGCG | 0.974 ± 0.015 |
| TTTTAGTGCC | 1.01 ± 0.04 |
| TTTAGTTCTG | 0.9788 ± 0.0094 |
| TTGAATAGTG | 0.966 ± 0.029 |
| TTAATTAAAC | 1.013 ± 0.0035 |
| AATGTAGTTG | 1.02 ± 0.027 |

| Sequence | switch fluorescence ratio |
| --- | --- |
| AGGTTATTTT | 0.992 ± 0.04 |
| TATGAGTCGA | 1 ± 0.019 |
| GGTGTTTTG | 0.9847 ± 0.007 |
| AAGAAGATTT | 1 ± 0.012 |
| GAATTGGATC | 1.02 ± 0.019 |
| AAACACTAAG | 1.08 ± 0.016 |
| AGCCGAAAGG | 1.024 ± 0.0025 |
| CTTTGGCTTT | 0.967 ± 0.014 |
| GGGTATGTCC | 0.989 ± 0.026 |
| GCGCGGGAAC | 1.46 ± 0.17 |
| GGATAGGGCG | 0.946 ± 0.1 |
| TGTCAGTGGG | 0.975 ± 0.034 |
| GATAGGTGGT | 0.9691 ± 0.0046 |
| CTGTATTTGT | 1.03 ± 0.019 |
| CATCTAGGGC | 1.04 ± 0.028 |
| GGTTTTATTT | 0.984 ± 0.068 |
| GATCGGGGTA | 1.014 ± 0.0071 |
| GGGGATTGGA | 0.979 ± 0.031 |
| GACTAGTGAC | 1.01 ± 0.021 |
| TTGATGGTAC | 1.0774 ± 0.00051 |
| CAGTTACACG | 0.995 ± 0.023 |
| GTCGTTCTGA | 0.99257 ± 0.00085 |
| GACTGGGCGA | 1.02 ± 0.029 |

| Sequence | switch fluorescence ratio |
| --- | --- |
| TTCATTCGTT | 1.05 ± 0.046 |
| GTTTACTATA | 1.06 ± 0.049 |
| TTTTAATCAG | 0.9842 ± 0.0036 |
| TTTCGAGTGC | 0.97892 ± 0.00082 |
| GACTGGTTTT | 1.01 ± 0.033 |
| GATATTAGTG | 0.9827 ± 0.0044 |
| GATTATTTGT | 1.03 ± 0.022 |
| ATATAAGCCC | 1.02 ± 0.021 |
| GTTCATGCAG | 0.993 ± 0.024 |
| AGGGTTAGGT | 1.003 ± 0.0028 |
| CAGCAGAGGG | 1.01 ± 0.01 |
| GGCCGTTCAT | 0.972 ± 0.011 |
| CGGTGTCAGC | 1.012 ± 0.0059 |
| CGGTTGTTGA | 1.01 ± 0.031 |
| AAGTTTAGTA | 1.01 ± 0.029 |
| TGATCGTG | 1.01 ± 0.015 |
| ATTTTGTGAG | 0.969 ± 0.031 |
| TGGCTCTCAT | 1.02 ± 0.017 |
| TGAATGTATT | 1.03 ± 0.045 |
| TAACCTGGAG | 1.18 ± 0.028 |
| GGGGTAGTTC | 1.01 ± 0.028 |
| GGGGTTTTG | 0.953 ± 0.0088 |
| CGTGGGACTG | 1.02 ± 0.017 |

| Sequence | switch fluorescence ratio |
| --- | --- |
| AACCTTTCTG | 1.5 ± 0.021 |
| TCAAGTGCAG | 0.99 ± 0.027 |
| TATTACAAT | 1.03 ± 0.052 |
| TTGATTGATA | 1 ± 0.028 |
| AATATCTGTT | 0.997 ± 0.019 |
| AACGGTTTCC | 1.02 ± 0.038 |
| TGGGGGCCAA | 0.965 ± 0.012 |
| GGGAGAGCA | 0.9821 ± 0.0098 |
| GTTTCAGTGT | 0.972 ± 0.021 |
| GAATTTTTGG | 0.997 ± 0.017 |
| AATGTTGTGC | 0.9381 ± 0.0049 |
| AGGTTTTTTG | 0.995 ± 0.016 |
| GCTAGATTTA | 0.987 ± 0.021 |
| TTTAAAAATA | 0.9966 ± 0.0049 |
| GAAGCTAATC | 2.77 ± 0.47 |
| ATCGAAGGGG | 0.981 ± 0.065 |
| AACTATTGAA | 1.003 ± 0.0077 |
| ACCTTTTTAG | 1.02 ± 0.015 |
| CGGTACCATC | 1.02 ± 0.013 |
| CAATGTTCGA | 0.981 ± 0.01 |
| TTTAAATGGT | 1 ± 0.027 |
| GGCCGGGGGA | 1.03 ± 0.069 |
| TGCGACTGG | 0.9979 ± 0.0067 |

| Sequence | switch fluorescence ratio |
| --- | --- |
| TTTTACCGAT | 1.01 ± 0.034 |
| TAGCAGGGTG | 1.14 ± 0.019 |
| GGTTATGCTG | 1.03 ± 0.1 |
| AGGTATCAAT | 1 ± 0.053 |
| ATGAAATAGT | 0.959 ± 0.046 |
| GACTGTTCCG | 0.958 ± 0.0055 |
| GGTGTTCTGT | 0.9665 ± 0.0089 |
| GGGGCTTAAG | 1.02 ± 0.035 |
| TTTAGTAGGT | 1.03 ± 0.023 |
| GGTACCATTG | 0.991 ± 0.03 |
| GCGAAAGTTT | 1.01 ± 0.013 |
| TGTTAATTGG | 1.02 ± 0.043 |
| CTGAGTTTAT | 0.997 ± 0.023 |
| TTAAATTATT | 0.984 ± 0.024 |
| CCGTGGAAAG | 1.02 ± 0.027 |
| GATGATGTGT | 1.02 ± 0.031 |
| TGAATATATT | 1.01 ± 0.022 |
| TGGTGGTCAG | 0.98151 ± 0.00069 |
| AGAGTACGGC | 1.09 ± 0.017 |
| GTTTTATGTA | 1.025 ± 0.0069 |
| ATCGCATGTC | 1.23 ± 0.094 |
| AATTGG | 0.992 ± 0.018 |
| TTTTCCGTGG | 1.01 ± 0.069 |

| Sequence | switch fluorescence ratio |
| --- | --- |
| CCCTTAGGGA | 1.02 ± 0.026 |
| CTTCCACGGT | 1.21 ± 0.12 |
| TCAATGGGAA | 0.967 ± 0.026 |
| GGGGGTAATG | 0.974 ± 0.035 |
| CAAAGGCGGA | 0.991 ± 0.014 |
| GAGGGGCAGG | 1.02 ± 0.074 |
| CAAGCTATCA | 1.026 ± 0.002 |
| GTATGATTGT | 0.994 ± 0.027 |
| AGATTGGATA | 1.01 ± 0.036 |
| CATTACGGCG | 0.995 ± 0.043 |
| TTAGACATTA | 1.02 ± 0.018 |
| CTTGATAACG | 1.024 ± 0.0033 |
| AAGGCGTAC | 1.24 ± 0.17 |
| AGCAGGAGGA | 1 ± 0.031 |
| CAGTTGTTGG | 0.984 ± 0.011 |
| CAAGGGGGGA | 1.01 ± 0.023 |
| TTTTAGAGCG | 1.02 ± 0.025 |
| TCGGGGGAAT | 1.11 ± 0.14 |
| GGGGACTTAT | 1.02 ± 0.017 |
